Experimental findings from patent publication US20260337278 (published 2026) are described below.

Numbering of substitutions follows the chain as printed.

B1: SI-95X41 (antibody)
chain 1: not shown
chain 2: DILMTQSPSSMSVSLGDTVSITCHSSQDINSNIGWLQQRPGKSFKGLIYHGTNLDDEVPSRFSGSGSGADYSLTISSLESEDFADYYCVQYAQFPWTFGGGTKLEIKRTVAAPSVFIFPPSDEQLKSGTASVVCLLNNFYPREAKVQWKVDNALQSGNSQESVTEQDSKDSTYSLSSTLTLSKADYEKHKVYACEVTHQGLSSPVTKSFNRGEC
B2: SI-95X55 (antibody)
chain 1: not shown
chain 2: DIVMTQSPSSVSLSLGDRVTITCHSSQDINSNIGWLQQKPGKAFKGLIYHGTNLDDGVPSRFSGSGSGADYTLTISSLQAEDFATYYCVQYAQFPWTFGPGTKLEIKRTVAAPSVFIFPPSDEQLKSGTASVVCLLNNFYPREAKVQWKVDNALQSGNSQESVTEQDSKDSTYSLSSTLTLSKADYEKHKVYACEVTHQGLSSPVTKSFNRGEC
B3: ABT-806 V7 (antibody, V domains shown)
VH: QVQLQESGPSLVKPSQTLSLTCTVSGYSITSDFAWNWIRQFPGRKLEWMGYISYSGNTRYNPSLKSRFTISRDTSKNQFYLKLRSVTIADTAVYYCVTAGRGFPYWGQGTLVTVSS
VL: DIQMTQSPSSVSASVGDRVTITCHSSQDINSNIGWLQQKPGKAPKGLIYHGTNLDDGVPSRFSGSGSGADYTLTISSLQPEDFATYYCVQYAQFPWTFGQGTKVEIKR
B4: ABT-806 V5 (antibody, V domains shown)
VH: B3 VH with S10G, T17S, F41A, R44K, K45G, M49V, K82Q, R84N, I88A, A89E
VL: B3 VL with Q3V, V11L, A13V, V15P, Q79E, T85V
B5: ABT-806 V2 (antibody, V domains shown)
VH: QVQLQESGPGLVKPSQSLSLTCTVSGYSITSDFAWNWIRQPPGKGLEWIGYISYSGNTRYNPSLKSRVTISRDTSKNQFSLQLNSVTAEDTAVYYCVTAGRGFPYWGQGTLVTVSS
VL: B3 VL with Q3V, V11L, A13V, V15P, Q79E, T85V
B6: ABT-806 V8 (antibody, V domains shown)
VH: B3 VH
VL: B3 VL with Q3V, V11L, A13V, V15P, Q79E, T85V
B7: ABT-806 V4 (antibody, V domains shown)
VH: B5 VH with P41A, I49V, V68F, S80Y
VL: B3 VL
B8: ABT-806 V1 (antibody, V domains shown)
VH: B5 VH
VL: B3 VL
B9: ABT-806 V6 (antibody, V domains shown)
VH: B5 VH with P41A, I49V, V68F, S80Y
VL: B3 VL with Q3V, A13L, V15L, P44F, P80A, Q100P, V104L
B10: ABT-806 V3 (antibody, V domains shown)
VH: B5 VH
VL: B3 VL with Q3V, A13L, V15L, P44F, P80A, Q100P, V104L
B11: ABT-806 V9 (antibody, V domains shown)
VH: B3 VH
VL: B3 VL with Q3V, A13L, V15L, P44F, P80A, Q100P, V104L
B12: SI-95X28 (antibody)
chain 1: not shown
chain 2: DILMTQSPSSMSVSLGDTVSITCHSSQDINSNIGWLQQRPGKSFKGLIYHGTNLDDEVPSRFSGSGSGADYSLTISSLESEDFADYYCVQYAQFPWTFGGGTKLEIKGGGGSGGGGSGGGGSDVQLQESGPSLVKPSQSLSLTCTVTGYSITSDFAWNWIRQFPGNKLEWMGYISYSGNTRYNPSLKSRISITRDTSKNQFFLQLNSVTIEDTATYYCVTAGRGFPYWGQGTLVTVSAGGGGSGGGGSGSGSGGGGGSGGGGSGGGGSDIQMTQSPSSLSASVGDRVTITCRSSQNIVHSNGNTYLDWYQQTPGKAPKLLIYKVSNRFSGVPSRFSGSGSGTDFTFTISSLQPEDIATYYCFQYSHVPWTFGQGTKLQITRTVAAPSVFIFPPSDEQLKSGTASVVCLLNNFYPREAKVQWKVDNALQSGNSQESVTEQDSKDSTYSLSSTLTLSKADYEKHKVYACEVTHQGLSSPVTKSFNRGEC
B13: SI-95X20 (antibody)
chain 1: not shown
chain 2: DIQMTQSPSSLSASVGDRVTITCRSSQNIVHSNGNTYLDWYQQTPGKAPKLLIYKVSNRFSGVPSRFSGSGSGTDFTFTISSLQPEDIATYYCFQYSHVPWTFGQGTKLQITRTVAAPSVFIFPPSDEQLKSGTASVVCLLNNFYPREAKVQWKVDNALQSGNSQESVTEQDSKDSTYSLSSTLTLSKADYEKHKVYACEVTHQGLSSPVTKSFNRGEC
B14: SI-95X17 (antibody)
chain 1: not shown
chain 2: B13 chain 2
B15: SI-95X19 (antibody)
chain 1: not shown
chain 2: B13 chain 2
B16: SI-95X21 (antibody)
chain 1: not shown
chain 2: B13 chain 2
B17: SI-95X2 (antibody)
chain 1: not shown
chain 2: B13 chain 2
B18: SI-95X22 (antibody)
chain 1: not shown
chain 2: B13 chain 2
B19: SI-95X23 (antibody)
chain 1: not shown
chain 2: DVQLQESGPSLVKPSQSLSLTCTVTGYSITSDFAWNWIRQFPGNKLEWMGYISYSGNTRYNPSLKSRISITRDTSKNQFFLQLNSVTIEDTATYYCVTAGRGFPYWGQGTLVTVSAGGGGSGGGGSGGGGSDILMTQSPSSMSVSLGDTVSITCHSSQDINSNIGWLQQRPGKSFKGLIYHGTNLDDEVPSRFSGSGSGADYSLTISSLESEDFADYYCVQYAQFPWTFGGGTKLEIKSGSGSGGGGGSGGGGSGGGGSDIQMTQSPSSLSASVGDRVTITCRSSQNIVHSNGNTYLDWYQQTPGKAPKLLIYKVSNRFSGVPSRFSGSGSGTDFTFTISSLQPEDIATYYCFQYSHVPWTFGQGTKLQITRTVAAPSVFIFPPSDEQLKSGTASVVCLLNNFYPREAKVQWKVDNALQSGNSQESVTEQDSKDSTYSLSSTLTLSKADYEKHKVYACEVTHQGLSSPVTKSFNRGEC
B20: SI-95X26 (antibody)
chain 1: not shown
chain 2: DILMTQSPSSMSVSLGDTVSITCHSSQDINSNIGWLQQRPGKSFKGLIYHGTNLDDEVPSRFSGSGSGADYSLTISSLESEDFADYYCVQYAQFPWTFGGGTKLEIKGGGGSGGGGSGGGGSDVQLQESGPSLVKPSQSLSLTCTVTGYSITSDFAWNWIRQFPGNKLEWMGYISYSGNTRYNPSLKSRISITRDTSKNQFFLQLNSVTIEDTATYYCVTAGRGFPYWGQGTLVTVSASGSGSGGGGGSGGGGSGGGGSDIQMTQSPSSLSASVGDRVTITCRSSQNIVHSNGNTYLDWYQQTPGKAPKLLIYKVSNRFSGVPSRFSGSGSGTDFTFTISSLQPEDIATYYCFQYSHVPWTFGQGTKLQITRTVAAPSVFIFPPSDEQLKSGTASVVCLLNNFYPREAKVQWKVDNALQSGNSQESVTEQDSKDSTYSLSSTLTLSKADYEKHKVYACEVTHQGLSSPVTKSFNRGEC

In the first assay the target is T1, EGFRvIII (human, UniProt P00533). In words: BLI.
B1 had a Kd of 15.9 nM. The molecule B2 came in with a Kd of 7.67 nM.

In a further assay the target is T1, EGFRvIII. In words: BLI. The source holds these as a separate data set.
B3: the Kd stood at 37.8 nM. The molecule B4 showed a Kd of 30.7 nM. As for B5, the equilibrium dissociation constant (Kd) was found to be 26.6 nM. This Kd and that of the molecule before are within 1.5-fold of each other. B6 gave a Kd of 31.9 nM.

B7: binding was put at a Kd of 23.2 nM. The Kd values of the last two molecules are within 1.5-fold of each other. On the same count and under the same terms, the value for B8 was 29.5 nM. The same measure, in the same setting: in the case of B9 it was 18.4 nM.

Molecule B10 had a Kd of 15.4 nM. The same measure, in the same setting: the value for B11 was 16.1 nM.

In a further assay the target is T2, EGFR (wild-type, His-tagged or biotinylated) (human, UniProt P00533). As to the kind of experiment: BLI.
Take B1: the binding result is recorded as “no binding”. Take B2: the binding result was “no binding”.

For the next assay, the target named is T1, EGFRvIII. In words: BLI. The source holds these as a separate data set.
On to B12, for which the equilibrium dissociation constant (Kd) worked out at 0.579 nM. With B13, the equilibrium dissociation constant (Kd) was determined as 0.839 nM. B14: the dissociation constant Kd turned out to be 0.642 nM. This Kd and that of the molecule before are within 1.5-fold of each other. The molecule B15 showed a Kd of 0.676 nM. B16 displayed a Kd of 0.654 nM. This Kd and that of the molecule before are within 1.5-fold of each other.

Molecule B17 showed a Kd of 1.15 nM. As for B18, binding was characterised by a dissociation constant (Kd) of 0.834 nM. The Kd values of the last two molecules are within 1.5-fold of each other. On to B19, for which the affinity, expressed as Kd, was 1.45 nM. Against the preceding molecule, the Kd is about 1.7-fold higher. B20: binding was put at a Kd of 0.281 nM.

The target in another assay is T2, EGFR (wild-type, His-tagged or …). In words: BLI. This is another data set of the same source.
B12 registered a Kd of 7.56 nM. In other words, the single-digit nanomolar range. For the molecule B13, the dissociation constant (Kd) turned out to be 4.73 nM. Same read-out and setting: in the case of B14 it was 6.02 nM. Consider B15, for which the dissociation constant Kd turned out to be 5.01 nM.

B16 returned a Kd of 5.56 nM. The molecule B17 gave an equilibrium dissociation constant (Kd) of 5.53 nM. Turning to B18, binding was put at a Kd of 6.1 nM. With B19, the equilibrium dissociation constant (Kd) was found to be 6.17 nM.

Turning to B20, binding was characterised by a dissociation constant (Kd) of 9.35 nM.
